Legend:
obese male ob/ob mice = test: Chronic 28-day treatment of ob/ob mice; assay type: in vivo
Method: Summary: CGH was administered daily for 28 days to obese male ob/ob mice. Mice were also treated with vehicle saline and thyroxine. Data was obtained for food intake, blood glucose, serum insulin, serum lipids, and serum thyroid hormone levels. At sacrifice, animals were examined for changes in liver pathology, and gross histology. […] Evaluation of liver histology sections was performed to examine the effect of CGH-mediated lipolysis on liver steatosis.
11-week old male ob/ob mice were individually caged and given a standard lab chow (4% fat) with free access to food and water. Animals were assigned to a treatment group (n=7−8, average weight 54.3±0.3 g/group), kept on a 12 hour dark cycle (6 PM to 6 AM), and injected each day between 7 and 9 AM. Chow consumed by each animal was weighed twice weekly. All animals received treatments IP in an injection volume of 0.1 ml. CGH was administered at 250 μg/kg, dissolved in sterile saline. Thyroxine (T4) was administered at 1.5 μg/mouse for 4 days, reduced to 1 μg/mouse for 10 days, and returned to 1.5 μg/mouse for the next 14 days. The vehicle controls received sterile saline. TSH was obtained from Genzyme Pharmaceuticals (Thyrogen®, Catalog number 36778; Genzyme Corporation, Cambridge, Mass.), and T4 obtained from Calbiochem, Inc. (EMD Biosciences, catalog number 61205, San Diego, Calif.) All blood draws were performed by retro-orbital puncture under isoflurane anesthesia.
After 25 days of treatment as described above, blood was sampled from all treated animals, serum separated, and analyzed for total T4 by a commercially available kit (Biocheck, Burlingame, Calif.). After 25 days of treatment, the vehicle T4 levels were 5.14±0.08 μg/dl. The CGH-treated group had T4 levels of 7.25±1.2 μg/dl, and the thyroxine-treated group had T4 levels of 9.04±0.47 μg/dl.
Subject animals were fasted for 4 hours at the beginning of the light cycle, and serum was obtained at treatment day 25 under isoflurane anesthesia. Serum Glucose levels were determined with the Cholestech LDX blood analyzer (Cholestech Corporation, Hayward Calif.), and serum insulin levels by ELISA. Serum glucose levels for vehicle and thyroxine treated groups were 306±22 and 295±23 mg/dl, respectively. […] Serum insulin levels for the vehicle and thyroxine treated groups were 33.5±1.8 and 25.9±1.7 ng/ml, respectively.
Subject animals were fasted for 4 hours at the beginning of the light cycle, and serum was obtained at treatment day 25 under isoflurane anesthesia. Triglyceride and total cholesterol levels were determined with the Cholestech LDX blood analyzer. Serum triglyceride levels for the vehicle controls were 143.7±23 mg/dl. […] Total cholesterol levels in the vehicle-treated and thyroxine-treated groups were 198±13 and 194±15 mg/dl, respectively.
Liver sections were dissected from all treatment groups described above and mounted in paraffin following fixation with NBS-formalin. Sections were mounted and stained with hematotoxylin and eosin (H&E) for visualization of hepatic structural changes. The extent of liver steatosis was evaluated on a four-point scale, from 0 to 3, with zero displaying no signs of liver steatosis, and a […], represented pronounced macrovesicular and microvesicular steatosis. […] Average scores given to the groups were vehicle (4), thyroxine (3), and CGH (1.5). […] The CGH treated sections appear to have regained hallmarks of normal hepatocyte architecture in only 28 days of treatment, with areas containing hepatocytes without lipid-laden inclusions in the cytoplasm of the cell.

human primary adipocytes = test: CRE-luciferase reporter assay in human primary adipocytes; assay type: cell-based
From the text: Differentiated murine 3T3 L1 adipocytes and primary human adipocytes were used to study signal transduction of CGH. 3T3 L1 fibroblasts were differentiated into adipocytes and the cells were transduced with recombinant adenovirus containing a reporter construct, a firefly luciferase gene under the control of cAMP response element (CRE) enhancer sequences. This assay system detects cAMP-mediated gene induction downstream of activation of Gs-coupled G-protein coupled receptors (GPCR's). […] In a separate experiment, undifferentiated 3T3 L1 fibroblasts were transduced with the recombinant adenovirus. […] In another experiment, human primary adipocytes were also transduced with the recombinant adenovirus containing a reporter construct. Treatment of the human adipocytes with isoproterenol produced a 17-fold induction of luciferase expression.
Cells were cultured at 37° C. in an 8% CO2 humidified incubator. Cells were seeded to collagen-coated 96-well plates (Becton Dickinson, cat. #356407) at a density of 5,000 cells per well. […] Luciferase activity was measured on a microplate luminometer (PerkinElmer Life Sciences, Inc., model LB 96V2R) following automated injection of 40 μl of luciferase assay substrate into each well. […]

B1: CGH: heterodimeric protein hormone comprised of alpha subunit GPHA2 and beta subunit GPHB5, recombinantly produced in CHO cells (protein)
chain 1: QEAVIPGCHLHPFNVTVRSDRQGTCQGSHVAQACVGHCESSAFPSRYSVLVASGYRHNITSVSQCCTISGLKKVKVQLQCVGSRREELEIFTARACQCDMCRLSRY
chain 2: ASSGNLRTFVGCAVREFTFLAKKPGCRGLRITTDACWGRCETWEKPILEPPYIEAHHRVCTYNETKQVTVKLPNCAPGVDPFYTYPVAIRCDCGACSTATTECETI
liver steatosis average score (obese male ob/ob mice; H&E liver sections, 28 days, n=4): 1.5 | serum total T4 levels (obese male ob/ob mice; after 25 days of treatment): 7.25 ± 1.2 µg/dL | Serum glucose levels (obese male ob/ob mice; day 25, fasted 4 hours): 251 ± 10 mg/dL | Serum insulin levels (obese male ob/ob mice; day 25, fasted 4 hours): 14.2 ± 3.6 ng/mL | Serum triglyceride levels (obese male ob/ob mice; day 25, fasted 4 hours): 100 ± 14.7 mg/dL | Total cholesterol levels (obese male ob/ob mice; day 25, fasted 4 hours): 104 ± 8.8 mg/dL | Food intake (obese male ob/ob mice; ob/ob mice, CGH 250 μg/kg IP daily, T4 1-1.5 μg/mouse): 6.3±0.09 grams/day of chow | induction of luciferase expression / reporter gene (human primary adipocytes): 14 fold
